# Residue numbers refer to the chain shown, from its start.
# B1: SEQ ID NO 121 (Fab, V domains shown)
# VH: EVQLVESGGGLVQPGGSLRLSCAASQFTFSNHYMNWVRQAPGKGLEWIGEIRSKSINSATHYAESVKGRFIISRDDNGNDLYLEMNSLKTEDTAEYYCAQNYYGSTYDYWGQGTLVTVS
# VL: EIVLTQSPDFQSVTPKEKVTITCRASQFVGSSIHWYQQKPDQSPKLLIKYASESMSGVPSRFSGSGSGTDFTFTISSLEAEDAATYYCQQSHSWPFTFGPGTKVDIK
# notes: Fab, E. coli lysate
# B2: SEQ ID NO 4 (Fab, V domains shown)
# VH: EVQLTESGGGLVQPGGSLRLSCRASGFIFSNHWMNWVRQAPGKGLEWIGEIRSKSSYSATSYAESVKGRFIISRDDNKTSLYLEMNSLKTEDTAEYYCAQNYYGSTYDYWGQGTLVTVS
# VL: B1 VL
# notes: Fab, E. coli lysate
# B3: SEQ ID NO 5 (Fab, V domains shown)
# VH: B1 VH with V5T, Y33W, G78K, D80S, Y82T, Q100R
# VL: B1 VL
# notes: Fab, E. coli lysate
# B4: SEQ ID NO 7 (Fab, V domains shown)
# VH: B1 VH with V5T, Y33W, I56S, G78K, N79T
# VL: B1 VL
# notes: Fab, E. coli lysate
# B5: SEQ ID NO 8 (Fab, V domains shown)
# VH: B1 VH with V5T, A23R, Q26G, F27S, S58G, D76G
# VL: B1 VL
# notes: Fab, E. coli lysate
# B6: SEQ ID NO 10 (Fab, V domains shown)
# VH: B2 VH with W33Y, S56I, Y57N, T79N, S80D, Y82T, Q100R
# VL: B1 VL
# notes: Fab, E. coli lysate
# B7: SEQ ID NO 11 (Fab, V domains shown)
# VH: B2 VH with R23A, S56I, Y57N, S58G
# VL: B1 VL
# notes: Fab, E. coli lysate
# B8: SEQ ID NO 13 (Fab, V domains shown)
# VH: B2 VH with R23A, F27S, W33Y, Y57N, S61H, S80D, Q100R
# VL: B1 VL
# notes: Fab, E. coli lysate
# B9: SEQ ID NO 14 (Fab, V domains shown)
# VH: B1 VH with V5T, Y33W, N57Y, S58G, D76G, Q100R, Y107P
# VL: B1 VL
# notes: Fab, E. coli lysate
# B10: SEQ ID NO 17 (Fab, V domains shown)
# VH: B2 VH with I28T, S61H, Q100R, Y107P
# VL: B1 VL
# notes: Fab, E. coli lysate
# B11: SEQ ID NO 18 (Fab, V domains shown)
# VH: B1 VH with A23R, I56S, S58G, H61S, D76G, D80S, Y82T, Q100R
# VL: B1 VL
# notes: Fab, E. coli lysate
# B12: SEQ ID NO 20 (Fab, V domains shown)
# VH: B1 VH with A23R, Q26G, I56S, H61S, Y82T, Y107P
# VL: B1 VL
# notes: Fab, E. coli lysate
# B13: SEQ ID NO 21 (Fab, V domains shown)
# VH: B1 VH with V5T, Y33W, N57Y, S58G, Q100R
# VL: B1 VL
# notes: Fab, E. coli lysate
# B14: SEQ ID NO 22 (Fab, V domains shown)
# VH: B1 VH with A23R, Q26G, F27S, Y33W, I56S, D80S, Y82T
# VL: B1 VL
# notes: Fab, E. coli lysate
# B15: SEQ ID NO 23 (Fab, V domains shown)
# VH: B2 VH with R23A, F27S, S56I, S58G, S61H, K78G, S80D, Q100R
# VL: B1 VL
# notes: Fab, E. coli lysate
# Target: T1, human tumor necrosis factor-α (rHuTNF-alpha, Biosource) (human, UniProt P01375 77-233)
# T1 construct: Bought recombinant protein coated on ELISA plates; The TNFα of the Biacore assay is not described further; also called TNFα; human TNFα
# Assay: solid-phase ELISA, Fab lysate on coated rHuTNF-alpha
# Experimental: The Fab libraries were cloned into pTrcHis2A (Cat. No. V365-20, Invitrogen, Carlsbad, Calif.). Proteins were expressed in E. coli and solid-phase ELISA was used to assess Fab binding to human TNFα. Briefly, 96-well plates were coated overnight at 4° C. with 1 μg/ml of rHuTNF-alpha (Biosource, Camarillo, Calif.) in Carbonate-bicarbonate buffer, pH9.4. After washing in PBS with 0.05% (w/v) Tween-20, the wells were blocked with 1% (w/v) BSA in PBS for 1 hour at room temperature. After washing, plates were incubated with transformed E. coli cell lysate diluted in the assay buffer (1% BSA and 0.05% Tween-20 in 10 mM PBS) for 2 hours at room temperature. Various concentrations of infliximab (0.5, 1 and 2 ng/ml) were used as positive anti-Human Kappa Light Chain Biotin/anti-penta-His Biotin control. Plates were washed and incubated with ImmunoPure Goat Anti-Human Kappa Chain, Biotin Conjugated (Cat. No. 31780, Pierce Biotechnology, Rockford, Ill.) and Penta-His Biotin Conjugate (Cat. No. 34440, QIAGEN, Valencia, Calif.) diluted 1:2000 in the assay buffer for 1 hour at room temperature. Following another washing step, plates were probed for 1 hour at room temperature with 100 μL/well of Streptavidin POD (Cat. No. 1089153, Roche Applied Science, Indianapolis, Ind.) diluted 1:4000 in the assay buffer. Plates were further washed and then incubated with 3,3′,5,5′-tetramentylbenzidine (TMB, Cat. No. 34028, Pierce Biotechnology) for 30 minutes. Substrate development was stopped by addition of 100 μL/well TMB Stop Solution (Cat. No. 50-85-05, KPL, Gaithersburg, Md.) and the absorbance was measured at 450 nm via an automated plate spectrophotometer.
# T1 sequence (P01375 77-233 limits assumed): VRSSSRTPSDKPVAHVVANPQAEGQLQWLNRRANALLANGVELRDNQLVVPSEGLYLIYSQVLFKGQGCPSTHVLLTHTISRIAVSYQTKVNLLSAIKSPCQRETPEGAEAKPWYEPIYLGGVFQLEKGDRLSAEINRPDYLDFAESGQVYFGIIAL
row,Binder,binding result
1,B1,binds
2,B2,binds
3,B3,binds
4,B4,binds
5,B5,binds
6,B6,binds
7,B7,binds
8,B8,binds
9,B9,binds
10,B10,binds
11,B11,binds
12,B12,binds
13,B13,binds
14,B14,binds
15,B15,binds
